Experimental data taken from patent publication WO2010106812A1.

Molecular target: soluble recombinant human IL-6 receptor (human) (UniProt P08887)
Assay: Biacore T100, biotinylated SR344 immobilised via streptavidin as model of membrane-type IL-6 receptor, dissociation at pH 7.4 and pH 5.8, 37 degrees C

Sequence of soluble recombinant human IL-6 receptor (human) (P08887 20-344, form in doubt): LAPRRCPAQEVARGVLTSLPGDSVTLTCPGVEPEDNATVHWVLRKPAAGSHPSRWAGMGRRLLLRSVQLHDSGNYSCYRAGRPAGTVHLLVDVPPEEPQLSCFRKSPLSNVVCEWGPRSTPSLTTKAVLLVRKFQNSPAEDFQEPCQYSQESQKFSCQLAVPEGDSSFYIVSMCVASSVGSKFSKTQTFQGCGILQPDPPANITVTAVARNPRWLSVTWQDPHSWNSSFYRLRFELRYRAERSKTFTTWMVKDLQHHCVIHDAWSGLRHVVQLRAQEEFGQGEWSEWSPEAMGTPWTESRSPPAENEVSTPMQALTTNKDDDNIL

Row | fold improvement of the pH dependency of the dissociation rate (pH 5.8 against pH 7.4) over TOCILIZUMAB [times] | fold increase of the pH dependence of the dissociation rate (pH 5.8 against pH 7.4) over TOCILIZUMAB [times] | Binder
1 | 11 |  | Fv3-M73 (antibody, V domains shown) VH: QVQLQESGPGLVKPSETLSLTCAVSGHSISHDHAWSWVRQPPGEGLEWIGFISYSGITNYNPTLQGRVTISRDNSKNTLYLQMNSLRAEDTAVYYCARSLARTTAMDYWGEGTLVTVSS VL: DIQMTQSPSSLSASVGDSVTITCQASRDISSHLNWYQQKPGKAPELLIYYGSHLLSGVPSRFSGSGSGTDFTFTISSLEAEDAATYYCGQGNRLPYTFGQGTKVEIER
2 | 10 |  | Fv4-M73 (antibody, V domains shown) VH: QVQLQESGPGLVKPSETLSLTCAVSGHSISHDHAWSWVRQPPGEGLEWIGFISYSGITNYNPSLQGRVTISRDNSKNTLYLQMNSLRAEDTAVYYCARSLARTTAMDYWGEGTLVTVSS VL: DIQMTQSPSSLSASVGDSVTITCQASTDISSHLNWYQQKPGKAPELLIYYGSHLLSGVPSRFSGSGSGTDFTFTISSLEAEDAATYYCGQGNRLPYTFGQGTKVEIER
3 |  | 2.6 | H3pI/L73 (antibody, human IgG1, kappa, V domains shown) VH: QVQLQESGPGLVKPSETLSLTCAVSGHSISHDHAHSWVRQPPGEGLEWIGYISYSGITNYNPSLKGRVTISRDTSKNQFSLKLSSVTAADTAAYYCARSLARTTAMDYWGEGTLVTVSS VL: DIQMTQSPSSLSASVGDSVTITCQASQHISSHLNWYQQKPGKAPELLIYYGSHLHSGVPSRFSGSGSGTDFTFTISSLEAEDAATYYCGQGNRLPYTFGQGTKVEIER
